Laboratory results published in PMC2706996.

Molecular target: T1, rSsp2 SM101 (Clostridium perfringens SM101 (type A), UniProt P21886 1-59)
T1 sequence: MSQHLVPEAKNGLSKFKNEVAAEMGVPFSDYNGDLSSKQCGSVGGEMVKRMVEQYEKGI
Assay: EMSA; glutaraldehyde-fixed; preferred probe
Conditions: protein: recombinant; tags: His6; label: 3'-biotin; blunt

B1: GC-rich probe (69.1% GC), Label-D2/Label-R2 (dsDNA)
DNA 1: CTGGCGACTCAGAAGGGGCTCGAACCCTCGACCTCCGGCGTGACAGGCCGGCACT
DNA 2: AGTGCCGGCCTGTCACGCCGGAGGTCGAGGGTTCGAGCCCCTTCTGAGTCGCCAG
B1: binds.
